Legend:
[1] = system: SOJ-6 cells; assay: Effect of antibodies on SOJ-6 cell proliferation (Example 11); format: cell-based, human
Procedure: The effects of the IgM antibody 16D10 and the chimeric antibody rec16D10 on the proliferation of SOJ-6 cells were examined. Cells were incubated in culture with no antibodies, with various amounts of 16D10 or rec16D10 antibodies, or with an irrelevant IgG antibody. Antibody 16D10 reduced cell proliferation by approximately 50% at either 25 or 50 μg/ml, while rec16D10 reduced proliferation by more than 20% and more than 35% at 25 and 50 μg/ml, respectively (FIG. 18).

[2] = system: 16D10 antigen on PANC-1 cells; assay: Flow cytometry detection of antigen at the cell surface, PANC-1; format: binding, human
Procedure: (§1) Detection of antigens at the surface of SOJ-6 and PANC-1 cells was carried out by indirect fluorescence under the following conditions: cells were released from culture plates by treatment with a non enzymatic dissociation liquid (Calbiochem) for 15 minutes at 37° C. All subsequent steps were carried out at 4° C. The cells were washed with phosphate buffered saline (PBS), fixed with 2% paraformaldehyde in PBS for 15 minutes, and washed with 1% BSA in PBS for 15 minutes. Antigens were exposed for 2 hours to specific antibodies, washed with PBS, and finally incubated for 45 minutes with appropriate FITC-labeled secondary antibodies. Cells were then washed, resuspended in isoflow buffer, and analyzed on Coulter FACSCalibur device.
(§2) Flow cytometry experiments were carried out to investigate whether the antigen recognized by 16D10 was found on the surface of cells. Results are shown in FIGS. 14 and 15, representing SOJ-6 and PANC-1 cells, respectively. […] In each case, 16D10 binding was compared to a negative control and a control mouse IgM (Sigma).

[3] = system: PANC-1 cells; assay: Cell-cycle distribution by propidium iodide flow cytometry, PANC-1; format: cell-based, human
[4] = system: PANC-1 cells; assay: MTT cell growth and proliferation assay, PANC-1; format: cell-based, human; conditions: PANC-1, increasing concentrations of antibody, 24 h
Procedure: Cell proliferation was determined using MTT assay as previously described (Mosmann et al., 1983 J Immunol Methods, 65(1-2):55-63). Briefly, cells were seeded at subconfluence in appropriate complete media containing 10% FCS in 96-well culture plates. Media were replaced for 24 h by fresh media with 10% inactivated FCS, including increasing concentrations of antibodies directed against FAPP (pAbL64, mAbJ28 and mAb16D10). Cells were washed with PBS and incubated with 100 μl of MTT (0.5 mg/ml) in complete media for 3 h, washed with PBS and finally incubated with DMSO for 30 min at 37° C. Cell growth was determined by measuring absorbance at 550 nm using a MR 5000 microplate spectrophotometer. All independent determinations were done in triplicate and compared to control.

[5] = system: Bcl-2, Bax, caspases 8 and 9, PARP in SOJ-6 cells; assay: SDS-PAGE and western blot of apoptosis proteins; format: cell-based, human; conditions: SOJ-6 cells, 24 h
Procedure: SOJ-6 cells were grown in 6-well culture plates in RPMI 1640 medium with 10% FCS. At subconfluency, the medium was removed and replaced for 24 hours by fresh RPMI medium with 10% inactivated FCS. SOJ-6 cells were then incubated with mAb16D10 or Cisplatin for 24 hours. At the end of incubation, cells were washed three times with ice-cold PBS (without […] and Mg^++) harvested and pelleted by centrifugation. Pellets were washed twice and lysed at 4° C. in 0.5 ml of lysis buffer (10 mM Tris-HCl pH 7.4, 150 mM NaCl, 1% Triton X-100, 1 mM benzamidine and phosphatase inhibitors). After lysis, homogenates were clarified by centrifugation at 10,000 g for 10 min at 4° C. An aliquot was saved for protein determination using the bicinchoninic acid assay (Pierce, Rockford, Ill.). Proteins (50 μg/lane) in reducing SDS buffer were separated onto 10, 12, or 15% polyacrylamide with 0.1% SDS (according to the molecular weight range of proteins to be separated). After electrophoretic migration, proteins were silver stained. Alternatively, proteins were transferred onto nitrocellulose membranes using a Mini Transblot electrophoretic cell (BioRad, Hercule, Oreg.), and transferred proteins were immunodetected by using appropriate primary and secondary antibodies. After washes, membranes were developed with a chemoluminescent substrate according to the manufacturer's instructions (Roche Diagnostics, Switzerland). In each experiment, a control was included by omitting primary antibodies or by using a non-immune serum.

[6] = system: 16D10 antigen on SOJ-6 cells; assay: Flow cytometry detection of antigen at the cell surface, SOJ-6; format: binding, human
Procedure: as §1, §2

[7] = system: SOJ-6 cells; assay: Nuclear staining with DAPI (nuclear fragmentation); format: cell-based, human; conditions: RPMI induced no apoptosis
Procedure: After treatment with mAb16D10 or cisplatin, cells were washed in ice-cold PBS, fixed and permeablized with 70% ethanol for 5 min at […] and staining with diluted 1/1000 DAPI solution in PBS for 1 min at room temperature. The cells were then washed with PBS. The nuclear morphology of cells was examined by fluorescence microscopy.

[8] = system: SOJ-6 cells; assay: Annexin V / PI apoptosis assay; format: cell-based, human; conditions: antibodies 20 μg/ml, tunicamycin 25 or 50 μg/ml
Procedure: SOJ-6 cells (20.10^4 cells per well) were seeded onto 24 wells plates 72H before to start the experiment. Cells were incubated either with 20 μg/ml 16D10 IgM, or 20 μg/ml of a further recombinant 16D10 IgG1 antibody which contained the 16D10 variable regions linked fused to a human IgG1 constant region and human kappa light region for the heavy and light chains respectively, 25 μg/ml Tunicamycin or 50 μg/ml Tunicamycin. The AnnexinV/PI stainings were performed after 24H of culture using the AnnexinV-FITC Apoptosis Detection Kit I (BD Pharmingen) according to the manufacturer instructions. Stainings were acquired on a FACScan (Becton Dickinson, San Jose, Calif.) and results were analysed using FlowJo Software.

[9] = system: cell surface antigens of fixed SOJ-6 cells; assay: FACS cell surface binding stability on fixed SOJ-6 cells; parameters: species or system human; conditions: preliminary FACS experiments
Excerpt: Taking in account that most of the antibodies that have been studied so far at Innate Pharma, have kon rate association constants ranging from 5×10^5 to 5×10^6 M^−1s^−1, one can estimate that the recombinant 16D10 antibody bivalent affinity is in the nanomolar order (e.g., 10 to 1 nanoM) which is compatible with the industrial development of a therapeutic antibody.

B1: 16D10: IgM monoclonal antibody recognizing FAPP/BSDL; producing cells deposited with the CNCM under the number I-3188 (antibody, listed as Mus musculus, V domains shown)
VH: QVQLQQSDAELVKPGASVKISCKASGYTFTDHAIHWVKQKPEQGLEWIGYISPGNDVIKFNEKFKGKATLTADKSSSTAYMQLNSLTSEDSAVYFCKRSEGGVFDYWGQGTTLTVS
VL: NIMMTQSPSSLAVSAGEKVTMSCKSSQSVLYSSNQKNFLAWYQQKPGQSPKLLIYWASTRESGVPDRFTGSGSGTDFTLTISSVQAEDLAVYYCHQYLSSYTFGGGTKLEIK
B1 was tested, and the “reduction of SOJ-6 cell proliferation” value ([1]; 25 μg/ml) was “approximately 50%”, the “reduction of SOJ-6 cell proliferation” value ([1]; 50 μg/ml) was “approximately 50%” and the “binding to antigen on PANC-1 cells” value [2] was “did not bind antigen present on PANC-1 cells”. The “effect on the cell cycle” value [3] was “no effect on the cell cycle was observed”, the “% growth of cells” value [4] was “unable to cause a decrease in growth or number of PANC-1 cells” and the Bax protein level [5] was “increase of Bax protein”. For the same molecule, the “anti-apoptotic protein Bcl-2 level” value [5] was “decrease of the anti-apoptotic protein Bcl-2”, the “mediators of induced apoptosis (caspases, PARP cleavage)” value [5] was “mediated via caspases 8 and 9, and poly-ADP ribose polymerase (PARP) cleavage” and the “effect of trypsin incubation on binding to SOJ-6 cells” value ([6]; antibody incubated with trypsin) was “substantially decrease the binding”. For the same molecule, the “binding to antigen on SOJ-6 cells” value ([6]; flow cytometry / FACS) was “found to bind antigen present on SOJ-6 cells”, the “apoptosis observed by DAPI staining (nuclear fragmentation)” value [7] was “significant levels of apoptosis” and the “apoptosis by Annexin V and Annexin V/PI staining” value [8] was “induced significant levels of apoptosis”. The “stability of staining on fixed SOJ-6 cells” value [9] was “seemed stable”.

Reference: patent US20100124555A1, “Compositions and Methods for Treating Pancreatic Tumors” (UNIVERSITE DE LA MEDITERRANEE, priority 2007, published 2010)
